Columns and labels:
[1] = molecular target: T1, catalytic region of CaCdc25 (REM-CAT tandem) (Candida albicans, UniProt P43069); assay: ITC; recombinant CaCdc25 (REM-CAT tandem) titrated with CaRas1-FL or G-domain, MicroCal VP-ITC, single binding site model; details: both partners purified
T1 construct: PDB 7NZZ holds this construct; also called REM-CAT tandem of CaCdc25; catalytic region of the CaRas1 guanine nucleotide exchange factor CaCdc25
T1 sequence: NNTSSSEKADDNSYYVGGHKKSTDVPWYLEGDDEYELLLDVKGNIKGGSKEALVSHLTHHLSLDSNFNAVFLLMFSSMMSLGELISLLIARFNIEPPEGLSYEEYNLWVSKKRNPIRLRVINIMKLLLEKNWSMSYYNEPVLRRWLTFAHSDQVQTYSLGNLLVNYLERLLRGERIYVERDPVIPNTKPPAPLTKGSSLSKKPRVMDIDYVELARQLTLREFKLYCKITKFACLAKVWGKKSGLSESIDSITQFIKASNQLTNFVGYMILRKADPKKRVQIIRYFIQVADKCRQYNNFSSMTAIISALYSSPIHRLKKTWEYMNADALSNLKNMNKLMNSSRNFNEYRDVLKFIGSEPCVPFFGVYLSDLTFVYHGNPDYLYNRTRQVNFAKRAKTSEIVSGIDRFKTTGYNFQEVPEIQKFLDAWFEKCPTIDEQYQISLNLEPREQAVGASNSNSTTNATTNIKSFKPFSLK

[2] = molecular target: T1, catalytic region of CaCdc25 (REM-CAT …); assay: SAXS; small angle X-ray scattering in solution, P12 beamline (EMBL, DESY), profiles extrapolated to infinite dilution; oligomeric state and stoichiometry deduced from the estimated masses (Table S1); details: both partners purified

B1: full-length Candida albicans Ras-like protein 1 (CaRas1-FL, 1–290) (natural protein)
chain: MLREYKLVVVGGGGVGKSALTIQLIQSHFVDEYDPTIEDSYRKQCTIDDQQVLLDVLDTAGQEEYSAMREQYMRTGEGFLLVYSINSLNSFQELNSFYDQILRVKDSDNVPVLVVGNKCDLEMERQVSYEDGLALANSFNCPFLETSAKQRINVEEAFYGLVRNINQYNAKIAEAEKQQQQQQQQQNANQQGQDQYGQQKDNQQSQFNNQINNNNNTSAVNGGVSSDGIIDQNGNGGVSSGQANLPNQSQSQSQRQQQQQQQEPQQQSENQFSGQKQSSSKSKNGCCVIV
notes: Ras-like protein 1 (CaRas1), Candida albicans, full-length protein, residues 1-290 (G-domain 1-166, hypervariable region 167-290); Monomeric in solution by SAXS; also called full-length CaRas1
[1]
  Kd: 9 µM
[2]
  stoichiometry N: 1

B2: isolated G-domain of CaRas1 (1–166) (domain or fragment)
chain: MLREYKLVVVGGGGVGKSALTIQLIQSHFVDEYDPTIEDSYRKQCTIDDQQVLLDVLDTAGQEEYSAMREQYMRTGEGFLLVYSINSLNSFQELNSFYDQILRVKDSDNVPVLVVGNKCDLEMERQVSYEDGLALANSFNCPFLETSAKQRINVEEAFYGLVRNIN
notes: Ras-like protein 1 (CaRas1), Candida albicans, GTPase domain (G-domain), residues 1-166; Monomeric in solution by SAXS; also called CaRas1 G-domain
[1]
  Kd: 9 µM
[2]
  stoichiometry N: 1
